# Results reported in paper PMC6947844 (Antibody therapeutics, 2019).
# B1: monoclonal antibody 40H3 (antibody, V domains shown)
# VH: QVQLKQSGPGLVQPSQSLSITCTVSGFSLTNYGIHWLRQSPGKGLEWLGMMWRGGGTDYNAAFISRLTITKDTSKSQVFFRMNNLQTNDTAIYYCARKGVGMGLGYWGQGTSVTVSS
# VL: DIQMTQSPASQSASLGESVTITCLASQTIGTWVAWYQQKPGRSPQLLIYGATNLADGVPSRFSGSGSGTKFSFKISSLQAEDFVSYYCQQLYSNPYTFGGGTKLEIK
# Target: Human EGFRvIII extracellular domain (ECD) C-terminal His-tagged protein (Homo sapiens, deletion of amino acids 6 to 273)
# Test: BLI
binder,measurement,value
B1,Kd,~0.27 nM
